According to publication PMC8093829:

T1: recombinant L-asparaginase refolded from E. coli inclusion bodies, P00805
T1 chain: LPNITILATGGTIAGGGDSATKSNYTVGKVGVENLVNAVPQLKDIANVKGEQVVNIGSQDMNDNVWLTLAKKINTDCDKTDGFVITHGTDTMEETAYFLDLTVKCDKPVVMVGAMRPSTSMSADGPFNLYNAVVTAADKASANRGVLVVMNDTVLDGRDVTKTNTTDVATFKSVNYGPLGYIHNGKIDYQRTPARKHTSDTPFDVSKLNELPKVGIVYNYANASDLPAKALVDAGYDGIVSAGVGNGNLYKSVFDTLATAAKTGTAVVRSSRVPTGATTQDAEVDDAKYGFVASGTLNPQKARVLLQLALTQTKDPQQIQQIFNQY

T2: commercial L-asparaginase 5,000 IU/ml, Bionase 5K, P00805
T2 chain: T1 chain

B1: recombinant L-asparaginase refolded from E. coli inclusion bodies, P00805 23-348 (enzyme)
chain: T1 chain
B2: commercial L-asparaginase 5,000 IU/ml, Bionase 5K, P00805 23-348 (enzyme)
chain: T1 chain

Legend:
[1] = biological target: T1, recombinant L-asparaginase refolded …; test: SEC; Superdex 200 PG 16/600, equilibrated with 20 mM Tris-HCl, 10% (v/v) glycerol, pH 8.5, eluted in 50 mM Tris-HCl, 0.5 ml/min; DEAE-purified, concentrated refolded L-asparaginase; settings: remark: other sources report otherwise
[2] = biological target: T2, commercial L-asparaginase 5,000 IU/ml, …; test: SEC; HPLC, TSK gel G3000SWxl, 20 mM Tris-HCl and 100 mM NaCl; commercial L-asparaginase concentrated to 2 mg/ml; settings: remark: other sources report otherwise

| Binder | stoichiometry N [1] | stoichiometry N [2] | tetrameric population (%) [2] [%] |
| --- | --- | --- | --- |
| B1 | 4 |  |  |
| B2 |  | 4 | 81.4 |
